# Laboratory results as given in US20140057840A1, “ANTI-ANDROGENIC AGENT, SEBUM SECRETION BLOCKER, HAIR GROWTH STIMULANT, AND FOOD OR BEVERAGE” (LOTTE CO., LTD., priority 2009, published 2014).
# T1: androgen receptor (Mus musculus, UniProt P19091)
# T1 construct: An androgen-dependent mouse breast cancer cell SC-3 cell; endogenous in cells; host or cells: SC-3 mouse breast cancer cells
# T1 sequence (P19091 1-899): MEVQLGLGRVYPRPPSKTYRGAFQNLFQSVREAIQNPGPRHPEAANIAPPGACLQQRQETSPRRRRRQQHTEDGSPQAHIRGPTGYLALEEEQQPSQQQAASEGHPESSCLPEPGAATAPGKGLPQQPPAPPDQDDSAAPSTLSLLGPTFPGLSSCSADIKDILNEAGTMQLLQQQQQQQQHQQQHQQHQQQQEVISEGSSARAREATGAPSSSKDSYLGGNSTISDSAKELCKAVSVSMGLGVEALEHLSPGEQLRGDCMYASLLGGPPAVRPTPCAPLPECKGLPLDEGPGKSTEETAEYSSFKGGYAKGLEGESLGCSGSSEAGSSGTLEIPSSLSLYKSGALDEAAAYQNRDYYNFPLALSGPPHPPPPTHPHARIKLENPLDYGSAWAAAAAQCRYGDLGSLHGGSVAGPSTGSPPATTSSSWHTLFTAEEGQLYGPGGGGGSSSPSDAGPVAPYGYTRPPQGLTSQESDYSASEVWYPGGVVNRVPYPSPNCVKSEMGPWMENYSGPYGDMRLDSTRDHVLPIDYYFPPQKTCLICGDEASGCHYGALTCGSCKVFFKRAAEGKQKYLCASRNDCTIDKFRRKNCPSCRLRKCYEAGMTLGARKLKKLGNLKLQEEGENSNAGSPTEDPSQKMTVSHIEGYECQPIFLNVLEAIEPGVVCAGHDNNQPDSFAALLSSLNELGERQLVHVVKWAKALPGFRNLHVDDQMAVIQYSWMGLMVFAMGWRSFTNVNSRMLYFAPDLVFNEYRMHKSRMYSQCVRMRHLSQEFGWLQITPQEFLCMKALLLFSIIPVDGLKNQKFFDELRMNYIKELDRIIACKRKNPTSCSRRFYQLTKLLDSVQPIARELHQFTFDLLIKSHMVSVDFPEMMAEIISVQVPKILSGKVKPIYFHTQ
# Key:
# [1] = tested on: testosterone 5α-reductase; assay: Testosterone 5α-reductase blocking test; assay type: biochemical; details: result in words; enzyme solution S-9; FIG. 1
# Method: 1. 0.5 ml of 5 mM Tris-HCl buffer solution (pH 7.2) was added to 0.1 ml of 3.0 mM testosterone solution (dissolved in propylene glycol).
# 2. Further, 0.1 ml of 6.7 mM NADPH solution (dissolved in 5 mM Tris-HCl buffer solution (pH 7.2)) and 0.05 ml of a sample solution (dissolved in 50% ethanol) were added thereto, the mixture was preheated at 37° C. and 0.1 ml of an enzyme solution (S-9, Oriental Yeast Co., Ltd.) was added to incubate for 1 hour.
# In this test, cow's lactoferrin was prepared to be used as the lactoferrin, and saw palmetto was used as a control.
# 3. Then, 3 ml of dichloromethane was added to terminate the reaction, 0.5 ml of an internal standard solution (0.1 mg/ml of p-hydroxybenzoic acid n-hexyl ester) was added thereto followed by shaking for 10 minutes, and the mixture was centrifuged at 3000 rpm for 10 minutes.
# 4. The dichloromethane layer was separated, collected and dried under reduced pressure. […] The residual testosterone was measured by HPLC from the obtained sample solution.
# The measurement was carried out by eluting with methanol/water (65/35) and monitoring at 254 nm under the conditions of using a YMC A-302 (internal diameter 4.6×150 mm) column at a column temperature of 40° C. at a flow rate of 1 ml/min. The measurement was carried out using the internal standard substance method and the blocking rate (%) was determined using the following formula. […]
# androgen receptor = biological target: T1, androgen receptor; assay: Androgen receptor binding blocking test (DHT-dependent proliferation of SC-3 cells, MTT assay); assay type: cell-based; details: SC-3 cell, 10^−8M DHT, FIG. 2
# Method: 24 Hours later, the culture medium was exchanged with HMB medium (0.1% BSA-containing Ham F12+MEM medium) to which the test sample and 10^−8M DHT were added, and the cell was cultured for 48 hours.
# Then, in accordance with MTT assay, the cell proliferation was evaluated by measuring the absorbance at 570 nm, which is the absorption maximum of blue formazan.
# To correct the influence of adherent cells, the absorbance at 650 nm was also measured simultaneously, and the difference between both absorbances was used as the produced amount of blue formazan. At the same time with the above, to examine the effect of the sample alone on SC-3 cell, the same culture and measurement were carried out by adding the sample alone, without adding DHT, to the HMB medium. […] Based on the measurement results, the binding blocking rate representing the anti-androgenic activity was determined using the following formula. […]
# A: The absorbance when DHT was added but the sample was not added
# B: The absorbance when DHT was not added and the sample was not added
# C: The absorbance when DHT was added and the sample was added
# D: The absorbance when DHT was not added but the sample was added
# hamster sebocytes = assay: Sebocyte culture test (sebum synthesis amount, Oil Red O staining); assay type: cell-based, golden hamster; details: medium with 1×10^−6M testosterone; for sebum synthesis amount suppressed to: about 2 weeks, FIG. 3
# Method: 1. The test was carried out using a hamster sebocyte culture kit KB-1000 (manufactured by KURABO […] LTD.).
# The sebocyte cell derived from the auricula of a normal golden hamster was inoculated in a 24-well plate in a density of 5.0×10^4 cells/well. During the test, the cell was cultured in medium containing testosterone in a concentration of 1×10^−6M.
# 2. The cell was cultured for several days until confluent, and the medium was exchanged with medium containing the test sample. The medium was exchanged with sample medium every other day and the culture was continued for about 2 weeks.
# In this test, cow's lactoferrin was prepared to be used as the lactoferrin, and spironolactone was used as a control.
# 3. Then, using a sebum synthesis assay kit SE-3001 (manufactured by KURABO […], LTD.), a WST-8 solution was added to each well and incubated for 30 minutes at 37° C. The supernatant was assayed at a wavelength of 450 nm, and the number of viable cell was counted.
# 4. Further, the supernatant was stained with Oil Red O and observed under a microscope while extracted with 100% isopropanol and measured at a wavelength of 520 nm for the lipid synthesis amount.
# The correction was made using the following formula, and the lipid synthesis amount per cell was compared.
# Comparison of lipid synthesis amount per cell=absorbance B/absorbance A
# Absorbance A: cell number measured value (450 nm)
# Absorbance B: lipid synthesis amount measured value (520 nm)
molecule,measurement,setting,value
"lactoferrin (protein, UniProt P24627 20-708, looked up, cow's lactoferrin; protein present in secretory fluids such as milk, tears, saliva, bile of mammals) Lactotransferrin: APRKNVRWCTISQPEWFKCRRWQWRMKKLGAPSITCVRRAFALECIRAIAEKKADAVTLDGGMVFEAGRDPYKLRPVAAEIYGTKESPQTHYYAVAVVKKGSNFQLDQLQGRKSCHTGLGRSAGWIIPMGILRPYLSWTESLEPLQGAVAKFFSASCVPCIDRQAYPNLCQLCKGEGENQCACSSREPYFGYSGAFKCLQDGAGDVAFVKETTVFENLPEKADRDQYELLCLNNSRAPVDAFKECHLAQVPSHAVVARSVDGKEDLIWKLLSKAQEKFGKNKSRSFQLFGSPPGQRDLLFKDSALGFLRIPSKVDSALYLGSRYLTTLKNLRETAEEVKARYTRVVWCAVGPEEQKKCQQWSQQSGQNVTCATASTTDDCIVLVLKGEADALNLDGGYIYTAGKCGLVPVLAENRKSSKHSSLDCVLRPTEGYLAVAVVKKANEGLTWNSLKDKKSCHTAVDRTAGWNIPMGLIVNQTGSCAFDEFFSQSCAPGADPKSRLCALCAGDDQGLDKCVPNSKEKYYGYTGAFRCLAEDVGDVAFVKNDTVWENTNGESTADWAKNLNREDFRLLCLDGTRKPVTEAQSCHLAVAPNHAVVSRSDRAAHVKQVLLHQQALFGKNGKNCPDKFCLFKSETKNLLFNDNTECLAKLGGRPTYEEYLGTEYVTAIANLKKCSTSPLLEACAFLTR",testosterone 5α-reductase blocking activity,[1],no testosterone 5α-reductase blocking activity
same,binding blocking activity (binding blocking rate),"androgen receptor; concentration of 60 ppm, 48 hours",about 85%
same,"binding blocking activity, concentration dependence",androgen receptor; result in words,concentration-dependent binding blocking activity
same,sebum synthesis amount suppressed to,hamster sebocytes; 10 ppm,60%
same,sebum synthesis amount suppressed to,hamster sebocytes; 20 ppm,60%
same,"sebum synthesis amount, concentration dependence","hamster sebocytes; result in words, microscopic observation and absorbance measurement",suppressed the sebum synthesis amount in a concentration-dependent manner
